Results: patent US20220296726A1 (Bicycle, published 2022)
*1 amine or outer side, *2 acyl side, *3 side chain or, on linkers, in order; H or OH if unused. Bridges are numbered along the chain shown (N, C = ends). Where no end group is shown, it is not given here. [ ]: non-standard residue; d: D form. TATA = O=C(CC[*:1])N1CN(C(=O)CC[*:2])CN(C(=O)CC[*:3])C1; Phe(4-CF3) = N[C@@H](Cc1ccc(C(F)(F)F)cc1)C(=O)O; Phe(3-Me) = Cc1cccc(C[C@H](N)C(=O)O)c1; 1Nal = N[C@@H](Cc1cccc2ccccc12)C(=O)O; 2Nal = N[C@@H](Cc1ccc2ccccc2c1)C(=O)O; hPhe = N[C@@H](CCc1ccccc1)C(=O)O

T1: Human TREM2 extracellular domain (ECD), residues 19-131, C-terminally biotinylated, deglycosylated (human, UniProt Q9NZC2 19-131, C-terminally biotinylated; deglycosylated)
T1 construct: range 19-131; loaded on Superstreptavidin biosensors; also called triggering receptor expressed on myeloid cells 2; Human BLI (deglycosylated)
T1 sequence (looked up): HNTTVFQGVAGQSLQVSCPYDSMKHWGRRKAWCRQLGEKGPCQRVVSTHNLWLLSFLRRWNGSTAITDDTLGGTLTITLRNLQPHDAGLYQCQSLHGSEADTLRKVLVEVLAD

T2: TREM2 on human iPSC macrophages (human, UniProt Q9NZC2 19-230)
T2 sequence (looked up): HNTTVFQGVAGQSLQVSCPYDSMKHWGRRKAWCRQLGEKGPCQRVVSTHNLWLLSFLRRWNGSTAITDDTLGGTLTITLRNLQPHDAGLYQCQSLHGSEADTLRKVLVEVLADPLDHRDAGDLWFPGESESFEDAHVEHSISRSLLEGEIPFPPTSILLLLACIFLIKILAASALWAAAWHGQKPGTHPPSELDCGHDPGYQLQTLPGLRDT

T3: Human TREM2 extracellular domain (ECD), residues 19-131, C-terminally biotinylated, glycosylated (human, UniProt Q9NZC2 19-131, C-terminally biotinylated; glycosylated)
T3 construct: range 19-131; loaded on Superstreptavidin biosensors; also called Human BLI glycosylated
T3 sequence (looked up): T1 sequence (looked up)

B1: BCY19768 (peptide)
peptide: ACTSYCFWPFYQCA-NH2
modifications: linker 2-6-13 via TATA; N-terminus assumed
SMILES: C[C@H](N)C(=O)N[C@H]1CSCCC(=O)N2CN3CN(C2)C(=O)CCSC[C@H](NC(=O)[C@H](Cc2ccc(O)cc2)NC(=O)[C@H](CO)NC(=O)[C@H]([C@@H](C)O)NC1=O)C(=O)N[C@@H](Cc1ccccc1)C(=O)N[C@@H](Cc1c[nH]c2ccccc12)C(=O)N1CCC[C@H]1C(=O)N[C@@H](Cc1ccccc1)C(=O)N[C@@H](Cc1ccc(O)cc1)C(=O)N[C@@H](CCC(N)=O)C(=O)N[C@H](C(=O)N[C@@H](C)C(N)=O)CSCCC3=O
B2: BCY20051 (peptide)
peptide: CSEYCXWPFYHC
modifications: N-terminal acetyl (Ac); CiSEYCii[2FPhe]WPFYHCiii; Ci, Cii, Ciii on TATA scaffold
B3: BCY19766 (peptide)
peptide: ACSYYCFWPFQSCA-NH2
modifications: linker 2-6-13 via TATA; N-terminus assumed
SMILES: C[C@H](N)C(=O)N[C@H]1CSCCC(=O)N2CN3CN(C2)C(=O)CCSC[C@H](NC(=O)[C@H](Cc2ccc(O)cc2)NC(=O)[C@H](Cc2ccc(O)cc2)NC(=O)[C@H](CO)NC1=O)C(=O)N[C@@H](Cc1ccccc1)C(=O)N[C@@H](Cc1c[nH]c2ccccc12)C(=O)N1CCC[C@H]1C(=O)N[C@@H](Cc1ccccc1)C(=O)N[C@@H](CCC(N)=O)C(=O)N[C@@H](CO)C(=O)N[C@H](C(=O)N[C@@H](C)C(N)=O)CSCCC3=O
B4: BCY20072 (peptide)
peptide: CSEYCFWPXYHC
modifications: N-terminal acetyl (Ac); CiSEYCiiFWP[3MePhe]YHCiii; Ci, Cii, Ciii on TATA scaffold
B5: BCY19669 (peptide)
peptide: Ac-CSEYCF[1Nal]PFYHC-NH2
modifications: linker 1-5-12 via TATA
SMILES: CC(=O)N[C@H]1CSCCC(=O)N2CN3CN(C2)C(=O)CCSC[C@H](NC(=O)[C@H](Cc2ccc(O)cc2)NC(=O)[C@H](CCC(=O)O)NC(=O)[C@H](CO)NC1=O)C(=O)N[C@@H](Cc1ccccc1)C(=O)N[C@@H](Cc1cccc2ccccc12)C(=O)N1CCC[C@H]1C(=O)N[C@@H](Cc1ccccc1)C(=O)N[C@@H](Cc1ccc(O)cc1)C(=O)N[C@@H](Cc1c[nH]cn1)C(=O)N[C@H](C(N)=O)CSCCC3=O
B6: BCY20057 (peptide)
peptide: CSEYCFXPFYHC
modifications: N-terminal acetyl (Ac); CiSEYCiiF[6FTrp]PFYHCiii; Ci, Cii, Ciii on TATA scaffold
B7: BCY19671 (peptide)
peptide: CSEYCFXPFYHC
modifications: N-terminal acetyl (Ac); CiSEYCiiF[6ClTrp]PFYHCiii; Ci, Cii, Ciii on TATA scaffold
B8: BCY20080 (peptide)
peptide: CSEYCFWPFXHC
modifications: N-terminal acetyl (Ac); CiSEYCiiFWPF[3tBuTyr]HCiii; Ci, Cii, Ciii on TATA scaffold

Legend:
[1] = target: T1, Human TREM2 extracellular domain (ECD), …; test: BLI steady state, deglycosylated human TREM2 ECD on sensor
Experimental: (§1) Bio-layer interferometry was performed on an Octet RED384® system (Sartorius) at 25° C. in a buffer containing 50 mM HEPES (pH 7.5), 150 mM NaCl and 0.1% Tween. […] Reference wells containing no bicycle peptides and reference sensors loaded with an unrelated protein (His-tagged MLLT3a) were subjected to the same assay protocol and double reference subtraction was used for processing to account for non-specific binding. Traces were analysed using Octet Software (Version 11.0). Association and dissociation curves were globally fit and the response at equilibrium (Req) plotted against concentration to obtain steady-state KD values.

[2] = target: T2, TREM2 on human iPSC macrophages; test: cell-based or functional assay
[3] = target: T3, Human TREM2 extracellular domain (ECD), …; test: BLI steady state, glycosylated human TREM2 ECD on sensor
Experimental: as §1

Row | Binder | Kd [1] | pSYK (µM) [2] | Kd [3]
1 | ACTNYCFWPFYSCA (linker 2-6-13 via TATA) [BCY19781] | 1400 nM | 34.1 µM | 
2 | ACTNYCFWPFYLCA (linker 2-6-13 via TATA) [BCY19782] | 1400 nM | 3.8 µM | 
3 | ACTNYCFWPFWSCA (linker 2-6-13 via TATA) [BCY19769] | 920 nM | 0.2 µM | 
4 | B1 | 900 nM | 7.8 µM | 
5 | Ac-CSEYCFWPFWHC (linker 1-5-12 via TATA) [BCY20077] |  |  | 750 nM
6 | B2 | 2040 nM |  | 
7 | ACSYYCFWPFQYCA (linker 2-6-13 via TATA) [BCY19767] | 550 nM | 8.6 µM | 
8 | B3 | 1000 nM | 35.2 µM | 
9 | ACSEYCFWPFQYCA (linker 2-6-13 via TATA) [BCY19784] | 450 nM | 1.8 µM | 
10 | ACSEYCFWPFQWCA (linker 2-6-13 via TATA) [BCY19771] | 5700 nM | 9.9 µM | 
11 | Ac-CSEYCF[1Nal]P[hPhe]YHC (linker 1-5-12 via TATA) [BCY19672] | 2800 nM | 8.5 µM | 
12 | B4 | 1670 nM |  | 
13 | B5 | 2000 nM | 16.6 µM | 
14 | Ac-CSEYCF[2Nal]PFYAC (linker 1-5-12 via TATA) [BCY19296] | 2700 nM | < 3.4 µM | 
15 | Ac-CSEYCF[1Nal]PFYAC (linker 1-5-12 via TATA) [BCY19294] | 1500 nM | < 3.4 µM | 
16 | B6 | 2560 nM |  | 
17 | B7 | 1000 nM | 154 µM | 
18 | B8 | 375 nM |  | 
19 | CSEYCFWPXYHC (N-terminal acetyl (Ac); CiSEYCiiFWP[HPhe]YHCiii; Ci, Cii, Ciii on TATA scaffold) [BCY19667] | 430 nM | 7.4 µM | 
20 | Ac-CSEYCF[Phe(3-Me)]PFYHC (linker 1-5-12 via TATA) [BCY20064] | 5240 nM |  | 
21 | Ac-CSEYCF[Phe(4-CF3)]PFYHC (linker 1-5-12 via TATA) [BCY20065] | 7280 nM |  | 
